Experimental data from patent US20110091460A1 (REGENTS OF THE UNIVERSITY OF MINNESOTA, published 2011).

Target: epidermal growth factor receptor (EGFR) (human, UniProt P00533 25-1210)
Experiment: cell-based or functional assay

B1: EGF4 KDEL (ligand)
chain: MNSDSECPLSHDGYCLHDGVCMYIEALDKYACNCVVGYIGERCQYRDLKWWELRPSGQAGAAASESLFVSNHAYMGLTSQLLPPLFFLLACAGNFVHGHKCDITLQEIIKTLNSLTEQKTLCTELTVTDIFAASKNTTEKETFCRAATVLRQFYSHHEKDTRCLGATAQQFHRHKQLIRFLKRLDRNLWGLAGLNSCPVKEANQSTLENFLERLKTIMREKYSKCSSEASGGPEPEGGSLAALTAHQACHLPLETFTRHRQPRGWEQLEQCGYPVQRLVALYLAARLSWNQVDQVIRNALASPGSGGDLGEAIREQPEQARLALTLAAAESERFVRQGTGNDEAGAANADVVSLTCPVAAGECAGPADSGDALLERNYPTGAEFLGDGGDVSFSTRGTQNWTVERLLQAHRQLEERGYVFVGYHGTFLEAAQSIVFGGVRARSQDLDAIWRGFYIAGDPALAYGYAQDQEPDARGRIRNGALLRVYVPRSSLPGFYRTSLTLAAPEAAGEVERLIGHPLPLRLDAITGPEEEGGRLETILGWPLAERTVVIPSAIPTDPRNVGGDLDPSSIPDKEQAISALPDYASQPGKPPKDEL
For B1, which “IC50, killing of MDA-MB-231 cells (3H-thymidine uptake assay)” value is on record?
Its value is 2 pM.
